{
  "source": "paper doi:10.1101/2025.11.12.688043",
  "about": "(bioRxiv, 2025)",
  "proteins": {"B1": {"name": "Saccharomyces cerevisiae TOK1, wild type (natural protein, UniProt P40310 1-691, looked up)", "chain": "MTRFMNSFAKQTLGYGNMATVEQESSAQAVDSHSNNTPKQAKGVLAEELKDALRFRDERVSIINAEPSSTLFVFWFVVSCYFPVITACLGPVANTISIACVVEKWRSLKNNSVVTNPRSNDTDVLMNQVKTVFDPPGIFAVNIISLVLGFTSNIILMLHFSKKLTYLKSQLINITGWTIAGGMLLVDVIVCSLNDMPSIYSKTIGFWFACISSGLYLVCTIILTIHFIGYKLGKYPPTFNLLPNERSIMAYTVLLSLWLIWGAGMFSGLLHITYGNALYFCTVSLLTVGLGDILPKSVGAKIMVLIFSLSGVVLMGLIVFMTRSIIQKSSGPIFFFHRVEKGRSKSWKHYMDSSKNLSEREAFDLMKCIRQTASRKQHWFSLSVTIAIFMAFWLLGALVFKFAENWSYFNCIYFCFLCLLTIGYGDYAPRTGAGRAFFVIWALGAVPLMGAILSTVGDLLFDISTSLDIKIGESFNNKVKSIVFNGRQRALSFMVNTGEIFEESDTADGDLEENTTSSQSSQISEFNDNNSEENDSGVTSPPASLQESFSSLSKASSPEGILPLEYVSSAEYALQDSGTCNLRNLQELLKAVKKLHRICLADKDYTLSFSDWSYIHKLHLRNITDIEEYTRGPEFWISPDTPLKFPLNEPHFAFMMLFKNIEELVGNLVEDEELYKVISKRKFLGEHRKTL"}},
  "molecular_target": "the molecule itself",
  "experiment": "cryo-EM structure",
  "data": [
    {"protein": "B1", "values": [
      {"measurement": "stoichiometry N", "result": 2}
    ]}
  ]
}
